Measurements from the supplement of paper PMC10567573.

B1: TRIM55 (parent)
chain: FQMEKIEHGYENMNHFTVNLNREE

Variants of: B1
Test: protein stability index of a GFP-peptide fusion (GPS, HEK-293T) (PSI 1-6); higher = more stable
Conditions: c terminus: a fixed tail appended
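Further: lentivirally expressed fusions sorted by FACS into six bins by GFP to DsRed ratio, PSI derived from sequencing read proportions per bin multiplied by bin number.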

| Variant | protein stability index |
| --- | --- |
| E4F | 1.58 |
| E4Y | 2.1 |
| E4K | 2.37 |
| E4T | 2.13 |
| E4Q | 2.42 |
| E4D | 2.76 |
| E4V | 1.8 |
| E4S | 1.9 |
| E4H | 2.66 |
| E4G | 2.45 |
| E4C | 2.16 |
| E4I | 2.24 |
| E4P | 2.58 |
| E4A | 2.5 |
| E4L | 2.43 |
| E4M | 1.73 |
| E4N | 2.64 |
| E4R | 2.19 |
| E4W | 1.94 |
| N14S | 2.68 |
| N14H | 1.69 |
| N14L | 2.29 |
| N14I | 1.98 |
| N14E | 4.16 |

| Variant | protein stability index |
| --- | --- |
| N14Q | 3.11 |
| N14K | 2.99 |
| N14C | 2.29 |
| N14Y | 3.78 |
| N14A | 3.17 |
| N14P | 2.79 |
| N14F | 2.53 |
| N14D | 3.45 |
| N14R | 2.86 |
| N14V | 2.15 |
| N14M | 2.29 |
| N14G | 3.21 |
| N14T | 2.69 |
| G9K | 2.81 |
| G9A | 3.63 |
| G9L | 2.94 |
| G9Q | 3.05 |
| G9S | 3.21 |
| G9P | 2.93 |
| G9V | 3.03 |
| G9D | 3.9 |
| G9H | 3.22 |
| G9F | 2.34 |
| G9I | 2.4 |

| Variant | protein stability index |
| --- | --- |
| G9C | 2.33 |
| G9T | 3.07 |
| G9W | 3.05 |
| G9R | 2.91 |
| G9E | 3.38 |
| G9N | 3.26 |
| G9M | 2.45 |
| G9Y | 2.11 |
| K5I | 2.24 |
| K5Y | 2.16 |
| K5T | 3.08 |
| K5R | 2.68 |
| K5P | 3.55 |
| K5H | 2.61 |
| K5A | 2.9 |
| K5E | 4.2 |
| K5L | 2.6 |
| K5C | 3.14 |
| K5M | 2.83 |
| K5D | 4.14 |
| K5W | 2.41 |
| K5Q | 3.51 |
| K5F | 1.7 |
| K5V | 2.49 |

| Variant | protein stability index |
| --- | --- |
| K5G | 2.93 |
| K5S | 3.43 |
| K5N | 3.54 |
| H8Q | 2.89 |
| H8T | 2.73 |
| H8W | 2 |
| H8G | 2.37 |
| H8S | 3.02 |
| H8Y | 3.03 |
| H8D | 2.71 |
| H8A | 2.77 |
| H8V | 3.03 |
| H8F | 2.09 |
| H8K | 2.84 |
| H8I | 2.21 |
| H8M | 2.51 |
| H8C | 2.65 |
| H8E | 3.51 |
| H8R | 2.74 |
| H8P | 2.77 |
| H8L | 2.44 |
| H8N | 2.89 |
| M3P | 2.91 |
| M3R | 2.66 |

| Variant | protein stability index |
| --- | --- |
| M3L | 2.82 |
| M3W | 2.11 |
| M3Y | 3.06 |
| M3T | 3.44 |
| M3N | 3.36 |
| M3Q | 3.41 |
| M3S | 2.88 |
| M3V | 2.8 |
| N12H | 2.38 |
| N12L | 2.14 |
| N12V | 2.04 |
| N12F | 2.17 |
| N12G | 2.98 |
| N12K | 2.44 |
| N12T | 2.76 |
| N12D | 3.65 |
| N12Q | 2.51 |
| N12Y | 1.84 |
| N12P | 2.37 |
| N12I | 1.94 |
| N12W | 1.83 |
| N12C | 2.06 |
| N12S | 2.3 |
| N12A | 2.19 |

| Variant | protein stability index |
| --- | --- |
| N12R | 2.34 |
| N12E | 3.57 |
| N12M | 1.99 |
| Y10V | 3.35 |
| Y10Q | 3.37 |
| Y10G | 3.31 |
| Y10R | 3.18 |
| Y10T | 3.1 |
| Y10N | 3.27 |
| Y10S | 3.44 |
| Y10I | 3.14 |
| Y10H | 2.94 |
| Y10M | 3.31 |
| Y10K | 2.82 |
| Y10E | 3.74 |
| Y10C | 2.74 |
| Y10P | 3.63 |
| Y10D | 3.31 |
| Y10F | 3.02 |
| Y10A | 3.55 |
| Y10L | 3.08 |
| Y10W | 2.42 |
| T17I | 2.06 |
| T17Y | 1.92 |

| Variant | protein stability index |
| --- | --- |
| T17D | 4.07 |
| T17E | 4.27 |
| T17W | 1.93 |
| T17R | 3.1 |
| T17H | 3.4 |
| T17Q | 3.75 |
| T17N | 3.76 |
| T17F | 1.74 |
| T17P | 3.7 |
| T17C | 2.49 |
| T17M | 2.77 |
| T17L | 2.31 |
| T17V | 2.25 |
| T17K | 3.31 |
| T17G | 2.86 |
| T17S | 3.03 |
| T17A | 2.59 |
| N21C | 1.82 |
| N21A | 2.89 |
| V18I | 2.94 |
| V18W | 1.69 |
| V18P | 2.11 |
| V18Q | 4.15 |
| V18T | 3.86 |

| Variant | protein stability index |
| --- | --- |
| V18G | 3.74 |
| V18D | 3.94 |
| V18C | 2.03 |
| V18L | 3.08 |
| V18E | 3.61 |
| V18R | 3.73 |
| V18K | 3.27 |
| V18N | 3.52 |
| V18F | 3.21 |
| V18A | 3.24 |
| V18H | 3.66 |
| V18Y | 2.39 |
| V18S | 3.77 |
| V18M | 3.49 |
| L20T | 2.7 |
| L20N | 3.5 |
| L20D | 3.47 |
| L20F | 2.71 |
| L20V | 1.91 |
| L20G | 3.43 |
| L20I | 2.64 |
| L20S | 3.2 |
| L20A | 3.2 |
| L20C | 2.33 |

| Variant | protein stability index |
| --- | --- |
| L20Y | 2.42 |
| L20E | 3.53 |
| L20K | 3.04 |
| L20M | 2.51 |
| L20H | 3.23 |
| L20P | 2.88 |
| L20W | 2.35 |
| L20Q | 3.33 |
| L20R | 3.01 |
| N19F | 2.29 |
| N19H | 2.24 |
| N19Q | 2.68 |
| N19T | 2.27 |
| N19I | 2.05 |
| N19W | 2.09 |
| N19S | 2.16 |
| N19E | 3.28 |
| N19L | 2.22 |
| N19Y | 1.86 |
| N19A | 3.17 |
| N19D | 3.37 |
| N19M | 2.27 |
| N19C | 2.65 |
| N19V | 2.29 |

| Variant | protein stability index |
| --- | --- |
| N19K | 2.47 |
| N19P | 3.4 |
| N19R | 2.4 |
| N19G | 2.72 |
| E11L | 1.81 |
| E11Q | 2.18 |
| E11Y | 2.08 |
| E11I | 2.31 |
| E11G | 2.14 |
| E11T | 2.42 |
| E11F | 2.04 |
| E11S | 2.59 |
| E11W | 2.35 |
| E11P | 2.07 |
| E11H | 1.95 |
| E11C | 1.56 |
| E11R | 2.15 |
| E11D | 2.55 |
| E11M | 1.98 |
| E11V | 1.97 |
| E11N | 2.16 |
| E11K | 2.42 |
| E11A | 1.82 |
| H15C | 2.22 |

| Variant | protein stability index |
| --- | --- |
| H15K | 3.15 |
| H15S | 3.14 |
| H15E | 3.62 |
| H15A | 2.1 |
| H15F | 2.14 |
| H15P | 1.5 |
| H15I | 1.99 |
| H15N | 3.77 |
| H15Q | 3.57 |
| H15T | 2.76 |
| H15W | 1.98 |
| H15M | 1.95 |
| H15V | 1.76 |
| H15R | 3.12 |
| H15L | 1.8 |
| H15D | 3.97 |
| H15Y | 1.82 |
| H15G | 3.72 |
| F16H | 4.09 |
| F16D | 4.71 |
| F16Q | 4.23 |
| F16P | 4.4 |
| F16R | 4.25 |
| F16V | 4.01 |

| Variant | protein stability index |
| --- | --- |
| F16S | 4.41 |
| F16N | 4.31 |
| F16W | 1.96 |
| F16Y | 3.29 |
| F16G | 4.23 |
| F16T | 4.36 |
| F16I | 3.65 |
| F16C | 4.06 |
| F16L | 4.21 |
| F16M | 3.87 |
| F16A | 4.17 |
| F16E | 4.5 |
| F16K | 4.52 |
| M13H | 3.13 |
| M13G | 3.75 |
| M13T | 3.36 |
| M13A | 3.23 |
| M13R | 2.68 |
| M13Q | 3.33 |
| M13P | 3.51 |
| M13N | 3.81 |
| M13D | 3.79 |
| M13E | 3.67 |
| M13W | 2.12 |

| Variant | protein stability index |
| --- | --- |
| M13F | 2.82 |
| M13K | 2.87 |
| M13I | 2.52 |
| M13V | 2.46 |
| M13L | 2.61 |
| M13Y | 2.38 |
| M13C | 2.93 |
| M13S | 3.04 |
| I6K | 3.07 |
| I6A | 3.27 |
| I6S | 3.18 |
| I6P | 3.32 |
| I6F | 2.15 |
| I6H | 3.24 |
| I6T | 2.87 |
| I6R | 2.6 |
| I6Q | 3.32 |
| I6G | 2.66 |
| I6C | 2.64 |
| I6V | 3 |
| I6E | 4.13 |
| I6M | 2.84 |
| I6N | 2.87 |
| I6W | 2.06 |

| Variant | protein stability index |
| --- | --- |
| I6D | 3.25 |
| I6L | 3.44 |
| I6Y | 2.97 |
| E7Y | 2.1 |
| E7C | 2.42 |
| E7P | 2.6 |
| E7L | 2.46 |
| E7R | 2.05 |
| E7N | 2.3 |
| E7V | 1.85 |
| E7D | 2.63 |
| E7A | 2.45 |
| E7S | 2.34 |
| E7W | 2.65 |
| E7M | 2.46 |
| E7F | 1.44 |
| E7Q | 2.73 |
| E7K | 2.05 |
| E7G | 2.1 |
| E7H | 2.66 |
| E7I | 2.42 |
| E7T | 2.27 |
